Key:
bovine serum albumin [1] = target: T1, bovine serum albumin (bovine, UniProt P02769 25-607); assay: ELISA, phage antibody on coated 1% BSA, anti-M13 peroxidase, OD 492 nm
T1 construct: Negative control antigen in the non-specific reactivity ELISA; also called BSA; BSA (1%)
Protocol: (§1) To test for non-specific reactivity against non-bacterial antigens an ELISA assay was used. The complex antigens 5% FBS, 2% ELK and 1% BSA were coated overnight to Maxisorp™ ELISA plates. Selected single-chain phage antibodies were incubated for 15 minutes in an equal volume of PBS containing 1% BSA to obtain blocked phage antibodies. The plates were emptied, and the blocked single-chain phage antibodies were added to the wells. Incubation was allowed to proceed for two hours at room temperature, the plates were washed in PBS containing 0.1% v/v Tween-20 and bound phage antibodies were detected by means of OD 492 nm measurement using an anti-M13 antibody conjugated to peroxidase. As a control, the procedure was performed simultaneously without single-chain phage antibody, with a negative control single-chain phage antibody directed against West Nile virus envelope protein (SC04-374).

bovine serum albumin [2] = target: T1, bovine serum albumin; assay: ELISA, phage antibody on coated 1% BSA, anti-M13 peroxidase
Protocol: as §1

T1 sequence (P02769 25-607 limits assumed): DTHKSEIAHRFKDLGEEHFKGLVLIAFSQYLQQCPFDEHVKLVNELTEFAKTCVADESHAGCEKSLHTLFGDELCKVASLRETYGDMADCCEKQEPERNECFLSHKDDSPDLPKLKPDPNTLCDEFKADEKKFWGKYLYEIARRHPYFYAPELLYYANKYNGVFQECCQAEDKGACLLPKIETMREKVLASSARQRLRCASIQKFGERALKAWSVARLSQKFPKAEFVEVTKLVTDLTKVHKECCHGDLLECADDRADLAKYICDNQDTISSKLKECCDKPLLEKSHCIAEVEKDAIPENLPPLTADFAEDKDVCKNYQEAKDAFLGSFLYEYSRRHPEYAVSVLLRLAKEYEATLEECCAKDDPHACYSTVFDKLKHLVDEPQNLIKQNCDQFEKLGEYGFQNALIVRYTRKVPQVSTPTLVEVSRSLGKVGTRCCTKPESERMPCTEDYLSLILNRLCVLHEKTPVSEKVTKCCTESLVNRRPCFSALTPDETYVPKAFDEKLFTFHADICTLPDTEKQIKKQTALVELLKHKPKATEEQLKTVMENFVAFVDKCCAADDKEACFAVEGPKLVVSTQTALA

Row | Binder | binding result (bovine serum albumin [1]) | ELISA (OD492 nm) (bovine serum albumin [2])
1 | single-chain phage antibody SC05-133 (scFv, also called scFv SC05-133) scFv: EVQLVETGGGLVKPGGSLRLSCSASRFSFRDYYMTWIRQAPGKGPEWVSHISGSGSTIYYADSVRGRFTISRDNAKSSLYLQMDSLQADDTAVYYCARGGRATSYYWVHWGPGTLVTVSSGTGGSGGTGSGTGGSTEIVLTQSPATLSLSPGERATLSCRASQSVSGYLGWYQQKPGQAPRLLIYGASSRATGIPDRFSGSGSGTDFTLTISRLEPEDFAVYYCQQYGSSPLTFGGGTKLEIKR | no binding | 0.04
2 | single-chain phage antibody SC02-430 (scFv, Selected from the semi-synthetic library JK1994 on S. aureus strain Cowan; also called scFv SC02-430) scFv: QVQLQESGPGLVKPSQTLSLTCTVSGGSISSGGYYWSWIRQPPGKGLEWIGYIYYSGSTYYNSSLKSRVTISVDTSKNQFSLKLSSVTAADTAVYYCAKTVMNSFFDWGQGTLVTVSSGGGGSGGGGSGGGGSEIELTQPPSVSGSPGQSITISCTGTSSDVGSYNLVSWYQQHPGKAPKLMIYEVSKRPSGVSNRFSGSKSGNTASLTISGLQAEDEADYYCCSYAGSSWVFGGGTKLTVL | no binding | 0.04

— patent US20090104204A1 (CRUCELL HOLLAND B V, published 2009)
